Assay results: ChEMBL document CHEMBL1671804, “Normal and abnormal heme biosynthesis. Part 7. Synthesis and metabolism of coproporphyrinogen-III analogues with acetate or butyrate side chains on rings C and D. Development of a modified model for the active site of coproporphyrinogen oxidase” (Bioorg Med Chem, 2011)

T1: Oxygen-dependent coproporphyrinogen-III oxidase, mitochondrial (Homo sapiens) (UniProt P36551)
T1 sequence (whole entry): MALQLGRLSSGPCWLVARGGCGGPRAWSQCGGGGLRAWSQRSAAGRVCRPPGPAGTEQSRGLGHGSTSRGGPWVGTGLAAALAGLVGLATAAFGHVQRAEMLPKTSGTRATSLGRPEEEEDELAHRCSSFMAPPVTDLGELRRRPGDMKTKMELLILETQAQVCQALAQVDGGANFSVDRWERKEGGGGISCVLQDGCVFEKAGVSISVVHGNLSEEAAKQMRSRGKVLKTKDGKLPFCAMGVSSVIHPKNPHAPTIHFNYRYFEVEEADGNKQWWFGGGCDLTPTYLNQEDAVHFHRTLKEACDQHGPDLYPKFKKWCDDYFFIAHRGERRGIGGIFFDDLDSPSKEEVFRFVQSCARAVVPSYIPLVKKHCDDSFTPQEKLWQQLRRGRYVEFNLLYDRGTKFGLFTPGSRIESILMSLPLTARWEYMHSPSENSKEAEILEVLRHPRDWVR

B1: Oxygen-dependent coproporphyrinogen-III oxidase, mitochondrial (Homo sapiens), P36551 (protein)
chain: T1 sequence (whole entry)

Key:
[1] = biological target: T1, Oxygen-dependent coproporphyrinogen-III oxidase, mitochondrial (Homo sapiens); experiment: Activity at recombinant human CPO assessed as product formation after 30 mins
[2] = test system: Uroporphyrinogen decarboxylase (Gallus gallus); experiment: Activity at chicken red cell hemolysate URO-D assessed as product formation after 150 mins
[3] = substrate: Cc1c2[nH]c(c1CCC(=O)O)Cc1[nH]c(c(CCC(=O)O)c1C)Cc1[nH]c(c(CCCC(=O)O)c1C)Cc1[nH]c(c(C)c1CCCC(=O)O)C2; experiment: (§1) Activity at recombinant human CPO
[4] = substrate: Cc1c2[nH]c(c1CCC(=O)O)Cc1[nH]c(c(CCC(=O)O)c1C)Cc1[nH]c(c(CC(=O)O)c1C)Cc1[nH]c(c(C)c1CC(=O)O)C2; experiment: as §1
[5] = substrate: Cc1c2[nH]c(c1CCC(=O)O)Cc1[nH]c(c(CCC(=O)O)c1C)Cc1[nH]c(c(CCC(=O)O)c1C)Cc1[nH]c(c(C)c1CCC(=O)O)C2; experiment: as §1

Row | Molecule | Activity [1] [%] | Activity [2] [%] | Km [3] [µM] | Km [4] [µM] | Km [5] [µM]
1 | Cc1c2[nH]c(c1CCC(=O)O)Cc1[nH]c(c(CCC(=O)O)c1C)Cc1[nH]c(c(CC(=O)O)c1C)Cc1[nH]c(c(C)c1CC(=O)O)C2 | 35.7 | 49.5 |  |  | 
2 | B1 |  |  | 0.76 | 6.8 | 0.68
